Changes are numbered by the printed parent chain. Names and notes keep the numbering of the source. Values joined by “and” are separate entries in the source; they are usually repeats but may differ in a detail not shown here. Identical values can stand only once. Like-named read-outs stand apart in the source and are kept apart here.

Series [1] is described as follows: In vitro decarboxylase activity toward MVA. Format: biochemical. As for the experimental part: In vitro enzyme kinetics of decarboxylases are performed as described in previous studies (Barta et al., 2012 and Vannice et al., 2014). Briefly, enzymatic activity of decarboxylase is determined by a spectrophotometer assay quantifying ADP product formation, which is coupled to NADH oxidation by pyruvate kinase/lactate dehydrogenase. Assay mixtures are prepared in 50 mM HEPES-KOH (pH 7.5) containing 10 mM MgCl2, 400 μM phosphoenolpyruvate, 200 μM NADH, 4 mM ATP, and 25 U of pyruvate kinase/lactate dehydrogenase (Sigma, P0294). […]

The nature of series [2]: In vitro enzyme kinetics of decarboxylases, ADP formation coupled to NADH oxidation. In kind it is biochemical. The following applies: for Km / kcat / % of WT (kcat/Km): substrate MVAP; for % of WT (kcat/Km): relative to PMDsc wild type. How it is done: A plasmid encoding a wild type mevalonate diphosphate decarboxylase from Saccharomyces cerevisiae (PMDsc) with N-terminal His-tag (pSKB3-PMDsc) is transformed into E. coli BL21 (DE3). A seed culture of BL21 (DE3) harboring pSKB3-PMDsc is prepared by inoculating a single colony and growing it overnight in Luria-Bertani (LB) medium containing kanamycin (50 μg/mL). The seed culture is diluted in Terrific Broth supplemented with 2% glycerol and 50 μg/mL kanamycin and incubated at 37° C. until the optical density of the culture at 600 nm (OD600) reached to 0.6-0.8. The cell culture is supplemented with isopropyl-β-D-thiogalactopyranoside (IPTG) to the final concentration of 0.5 mM and transferred to 18° C. for protein expression overnight. Cells are collected by centrifugation and re-suspended in 50 mM Tris-HCl (pH 7.5) buffer containing 300 mM NaCl and 10 mM imidazole. Cells are lysed by sonication and purified by HisPur Cobalt Resins (Thermo Scientific, USA). The purified PMDss is desalted in 10 mM Tris-HCl (pH 7.5) containing 50 mM NaCl, 0.5 mM dithiothreitol (DTT) and 20% glycerol, and flash-frozen in liquid nitrogen for storage at −80° C. All PIVD mutants, PMDsc, and NudB are purified as described above, except that NudB is desalted in 50 mM Tris-HCl (pH 8.0) buffer containing 0.1 mM EDTA, 1 mM DTT and 20% glycerol.
In vitro enzyme kinetics of decarboxylases are performed as described in previous studies (Barta et al., 2012 and Vannice et al., 2014). Briefly, enzymatic activity of decarboxylase is determined by a spectrophotometer assay quantifying ADP product formation, which is coupled to NADH oxidation by pyruvate kinase/lactate dehydrogenase. Assay mixtures are prepared in 50 mM HEPES-KOH (pH 7.5) containing 10 mM MgCl2, 400 μM phosphoenolpyruvate, 200 μM NADH, 4 mM ATP, and 25 U of pyruvate kinase/lactate dehydrogenase (Sigma, P0294). The reaction is initiated by addition of various concentrations of MVAP from 100 μM to 4,000 μM, and the reaction velocity is determined by monitoring OD at 340 nm in Spectramax 384plus microplate reader (Molecular Devices, USA).

For series [3] the following is noted: substrate MVAPP, cited from earlier work.
Series [4] concerns E. coli BW25113. Put plainly: Isopentenol production in E. coli. In kind it is cell-based, Escherichia coli. The following applies: for isopentenol productivity: pathway II, through 30 hours of batch fermentation; for effect on in vivo isopentenol production: expressed in IPP-bypass pathway II in E. coli. How it is done:
E. coli BW25113 harboring two plasmids is used for isopentenol production. Seed cultures of all production strains are prepared by growing single colonies in LB medium containing 100 μg/mL ampicillin and 30 μg/mL chloramphenicol overnight at 37° C. with shaking at 200 rpm. The seed cultures are diluted in EZ-Rich defined medium (Teknova, USA) containing 10 g/L glucose (1%, w/v), 100 μg/mL ampicillin and 30 μg/mL chloramphenicol. The E. coli cell cultures are incubated in rotary shakers (200 rpm) at 37° C., and 0.5 mM IPTG is added to induce protein expression at OD600 of 0.6-0.8. To provide different levels of aeration, identical volumes of the cell culture are split into two flasks for incubation at 30° C. with shaking at either 200 rpm or 30 rpm.
For isopentenol quantification, 250 μL of cell culture is combined with 250 μL of ethyl acetate containing 1-butanol (30 mg/L) as an internal standard. This mixture of ethyl acetate and cell culture is vigorously shaken for 15 min and subsequently centrifuged at 13,000 g for 2 min to separate ethyl acetate from the aqueous phase. 100 μL of the ethyl acetate layer was diluted 5-fold, and 1 μL is analyzed by Agilent GCMS equipped with Cyclosil-B column (Agilent, USA) or Thermo GCFID equipped with DB-WAX column (Agilent, USA) for quantitation of isopentenol.

Series [5] can be described thus: In vitro enzyme kinetics of decarboxylases, ADP formation coupled to NADH oxidation. Format: biochemical. The following applies: in vitro assay reactions using cell lysates.
Series [6] can be described thus: In vitro hydrolysis of IPP by purified Nudix hydrolase. Format: biochemical. The following applies: purified enzyme with IPP; up to 16 hours. As for the experimental part: All metabolites are analyzed by liquid chromatography mass spectrometry (LC-MS; Agilent Technologies 1200 Series HPLC system and Agilent Technologies 6210 time-of-flight mass spectrometer) on a ZIC-HILIC column (150 mm length, 2.1-mm internal diameter, and 3.5-μm particle size). Standard chemicals (IPP and IP) are purchased from Sigma-Aldrich (USA). Metabolites are eluted isocratically with a mobile phase composition of 64% (v/v) acetonitrile containing 50 mM ammonium acetate with a flow rate of 0.15 mL/min. IPP and IP from E. coli extracts or enzyme assay are quantified via […] calibration curves ranging from 781.25 nM to 200 μM.

B1: PMDsc WT: wild type mevalonate diphosphate decarboxylase from Saccharomyces cerevisiae (protein, UniProt P32377 1-396, looked up)
Diphosphomevalonate …: MTVYTASVTAPVNIATLKYWGKRDTKLNLPTNSSISVTLSQDDLRTLTSAATAPEFERDTLWLNGEPHSIDNERTQNCLRDLRQLRKEMESKDASLPTLSQWKLHIVSENNFPTAAGLASSAAGFAALVSAIAKLYQLPQSTSEISRIARKGSGSACRSLFGGYVAWEMGKAEDGHDSMAVQIADSSDWPQMKACVLVVSDIKKDVSSTQGMQLTVATSELFKERIEHVVPKRFEVMRKAIVEKDFATFAKETMMDSNSFHATCLDSFPPIFYMNDTSKRIISWCHTINQFYGETIVAYTFDAGPNAVLYYLAENESKLFAFIYKLFGSVPGWDKKFTTEQLEAFNHQFESSNFTARELDLELQKDVARVILTQVGSGPQETNESLIDAKTGLPKE
B1: the “activity on MVA” value in series [1] is given as “too low to determine the kinetic parameters”. In series [2] (MVAP vs native substrate MVAPP), the “Km toward MVAP, fold higher than reported Km toward MVAPP” value is on record as around 8 fold and the “kcat toward MVAP, fold lower than reported kcat toward MVAPP” value is “about 35 fold”. For the same molecule, in series [2], the Km – broadly, the substrate concentration at which the rate is half of its maximum – was found to be 990 µM; the kcat (in general, the maximal rate divided by the concentration of active sites) came out at 0.14 s⁻¹; the “% of WT (kcat/Km)” value stood at 100%. The Km in series [3] (Krepkiy and Miziorko, 2004) is 123 µM. Also, the kcat in series [3] (literature) was 5.9 s⁻¹ and 5.4 s⁻¹. Also, the isopentenol productivity in series [4] is 15.9 mg/L/h.

B2: PMDsc R74H: PMDsc mutant R74H (protein)
chain: B1 Diphosphomevalonate … with R74H
Take B2: the “activity on MVA” value in series [1] is recorded as “do not show detectible hydrolysis activity on MVA”. In series [2], the Km was 770 µM, the kcat worked out at 0.23 s⁻¹ and the “% of WT (kcat/Km)” value is on record as 220%. Moreover, the “% of WT (kcat/Km)” value in series [2] (listed as R74H) stood at 220%. In series [4], this molecule yielded an isopentenol productivity of 20.4 mg/L/h.

B3: PMDsc K22M: PMDsc mutant, K22 mutated to neutral methionine (protein)
chain: B1 Diphosphomevalonate … with K22M
In the case of B3, in series [2], the Km came out at 2470 µM, the kcat was 0.09 s⁻¹ and the “% of WT (kcat/Km)” value is given as 25%. For the same molecule, the “effect on in vivo isopentenol production” value in series [4] is reported as “do not significantly change the in vivo production titer”.

B4: PMDsc T209D: PMDsc mutant, T209 mutated to negatively charged aspartate (protein)
chain: B1 Diphosphomevalonate … with T209D
In the case of B4, in series [2], the Km is 990 µM, the kcat stood at 0.13 s⁻¹ and the “% of WT (kcat/Km)” value turned out to be 98%. The “effect on in vivo isopentenol production” value in series [4] is recorded as “do not significantly change the in vivo production titer”.

B5: PMDsc I145F: PMDsc mutant I145F (protein)
chain: B1 Diphosphomevalonate … with I145F
For B5, in series [1], the “activity on MVA” value is “do not show detectible hydrolysis activity on MVA”. Further, in series [2], the Michaelis-Menten constant (Km) came out at 1360 µM, the kcat is 0.28 s⁻¹ and the “% of WT (kcat/Km)” value was 147%. Moreover, the “% of WT (kcat/Km)” value in series [2] (listed as I145F) came out at 147%. In addition, the “effect on in vivo isopentenol production” value in series [4] was “reduces isopentenol titer and productivity”.

B6: S208E: PMDsc mutant, serine 208 mutated to glutamate (protein, UniProt P32377 1-396, looked up, variant S208E)
Diphosphomevalonate …: B1 Diphosphomevalonate … with S208E
For B6, in series [5], the “product formation from MVAP” value is on record as “do not produce detectible amount of product”.

B7: S155E: PMDsc mutant, serine 155 mutated to glutamate (protein, UniProt P32377 1-396, looked up, variant S155E)
Diphosphomevalonate …: B1 Diphosphomevalonate … with S155E
Turning to B7, the “product formation from MVAP” value in series [5] was “do not produce detectible amount of product”.

B8: NudF: NudF of B. subtilis, identified as a IPP hydrolase (protein, UniProt P54570 1-185, looked up)
ADP-ribose pyrophosphatase: MKSLEEKTIAKEQIFSGKVIDLYVEDVELPNGKASKREIVKHPGAVAVLAVTDEGKIIMVKQFRKPLERTIVEIPAGKLEKGEEPEYTALRELEEETGYTAKKLTKITAFYTSPGFADEIVHVFLAEELSVLEEKRELDEDEFVEVMEVTLEDALKLVESREVYDAKTAYAIQYLQLKEALQAQK
As to B8, the IPP hydrolysis product result in series [6] is given as “hydrolyze IPP to IP, but not to isopentenol”.

Values taken from patent US11660961B2, “Host cells and methods for producing isopentenol from mevalonate” (The Regents of the University of California, priority 2015, dated 2023).
